{"source": "paper PMC9731866", "about": "“Structures of a constitutively active mutant of human IDH3 reveal new insights into the mechanisms of allosteric activation and the catalytic reaction” (The Journal of Biological Chemistry, 2022)", "key": {"[1]": {"substrate": "O=C(O)C[C@H](C(=O)O)[C@@H](O)C(=O)O", "test": "NADH production, Hill fit", "assay_type": "biochemical, Homo sapiens", "settings": "no activators, 3.2 mM NAD, 2 mM MgCl2, 33 mM Tris-acetate pH 7.4", "text": "NADH production, Hill fit on αβ heterodimer of HsIDH3 (mutant form αMβ)"}, "[2]": {"substrate": "O=C(O)C[C@H](C(=O)O)[C@@H](O)C(=O)O", "test": "NADH production, Hill fit", "assay_type": "biochemical, Homo sapiens", "settings": "no activators, 3.2 mM NAD, 2 mM MgCl2, 33 mM Tris-acetate pH 7.4", "text": "NADH production, Hill fit on αγ heterodimer of HsIDH3 (mutant form αMγ)", "remark": "listed apart in the source"}}}
{"protein": "αβ heterodimer of HsIDH3 (mutant form αMβ) (Homo sapiens; P50213:Q166A) (protein, coexpressed alpha and beta-TEV-His6 (pQlinkN), E. coli BL21(DE3) Codon-Plus, His6 tag cleaved with TEV; 1:1 heterodimer, mutant is heterotetramer (αMβ)2 of 131-149 kDa) chain 1: TGGVQTVTLIPGDGIGPEISAAVMKIFDAAKAPIQWEERNVTAIQGPGGKWMIPSEAKESMDKNKMGLKGPLKTPIAAGHPSMNLLLRKTFDLYANVRPCVSIEGYKTPYTDVNIVTIRENTEGEYSGIEHVIVDGVVASIKLITEGASKRIAEFAFEYARNNHRSNVTAVHKANIMRMSDGLFLQKCREVAESCKDIKFNEMYLDTVCLNMVQDPSQFDVLVMPNLYGDILSDLCAGLIGGLGVTPSGNIGANGVAIFESVHGTAPDIAGKDMANPTALLLSAVMMLRHMGLFDHAARIEAACFATIKDGKSLTKDLGGNAKCSDFTEEICRRVKDLD chain 2: not shown", "values": [{"measurement": "K0.5", "setting": "[1]", "value": "0.17 ± 0.02", "unit": "mM"}, {"measurement": "Vmax", "setting": "[1]", "value": 18, "unit": "µmol/min/mg"}]}
{"protein": "αγ heterodimer of HsIDH3 (mutant form αMγ) (Homo sapiens; P50213:Q166A) (protein, coexpressed alpha and gamma-TEV-His6 (pQlinkN), E. coli BL21(DE3) Codon-Plus, His6 tag cleaved with TEV; 1:1 heterodimer, mutant is heterotetramer (αMγ)2 of 131-149 kDa) chain 1: TGGVQTVTLIPGDGIGPEISAAVMKIFDAAKAPIQWEERNVTAIQGPGGKWMIPSEAKESMDKNKMGLKGPLKTPIAAGHPSMNLLLRKTFDLYANVRPCVSIEGYKTPYTDVNIVTIRENTEGEYSGIEHVIVDGVVASIKLITEGASKRIAEFAFEYARNNHRSNVTAVHKANIMRMSDGLFLQKCREVAESCKDIKFNEMYLDTVCLNMVQDPSQFDVLVMPNLYGDILSDLCAGLIGGLGVTPSGNIGANGVAIFESVHGTAPDIAGKDMANPTALLLSAVMMLRHMGLFDHAARIEAACFATIKDGKSLTKDLGGNAKCSDFTEEICRRVKDLD chain 2: FSEQTIPPSAKYGGRHTVTMIPGDGIGPELMLHVKSVFRHACVPVDFEEVHVSSNADEEDIRNAIMAIRRNRVALKGNIETNHNLPPSHKSRNNILRTSLDLYANVIHCKSLPGVVTRHKDIDILIVRENTEGEYSSLEHESVAGVVESLKIITKAKSLRIAEYAFKLAQESGRKKVTAVHKANIMKLGDGLFLQCCREVAARYPQITFENMIVDNTTMQLVSRPQQFDVMVMPNLYGNIVNNVCAGLVGGPGLVAGANYGHVYAVFETATRNTGKSIANKNIANPTATLLASCMMLDHLKLHSYATSIRKAVLASMDNENMHTPDIGGQGTTSEAIQDVIRHIRVINGRAVEA", "values": [{"measurement": "K0.5", "setting": "[2]", "value": "0.26 ± 0.11", "unit": "mM"}, {"measurement": "Vmax", "setting": "[2]", "value": 25.5, "unit": "µmol/min/mg"}]}
